Values belong to the binder of their own block, whether it stands above or below them.
Key:
[1] = molecular target: T1, Myc-tagged human GPAT3 (GPAT3-Myc), Q53EU6; experiment: co-immunoprecipitation (anti-FLAG IP, immunoblot quantification); settings: chain shown with the change; HEK293 cells; n = 3; parent: est. 1.0; read off a plot
T1 chain: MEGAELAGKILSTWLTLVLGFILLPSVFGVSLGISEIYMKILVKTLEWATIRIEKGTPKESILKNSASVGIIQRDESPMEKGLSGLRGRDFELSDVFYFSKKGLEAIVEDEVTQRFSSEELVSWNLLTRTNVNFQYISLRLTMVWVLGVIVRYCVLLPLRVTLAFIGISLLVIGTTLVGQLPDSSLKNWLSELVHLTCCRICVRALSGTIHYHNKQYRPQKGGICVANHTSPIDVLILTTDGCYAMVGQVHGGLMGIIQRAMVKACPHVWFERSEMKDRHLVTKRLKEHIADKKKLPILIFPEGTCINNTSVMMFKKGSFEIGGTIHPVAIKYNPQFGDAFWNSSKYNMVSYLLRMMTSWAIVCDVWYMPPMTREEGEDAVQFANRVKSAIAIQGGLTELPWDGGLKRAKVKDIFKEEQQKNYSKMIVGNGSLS

[2] = molecular target: N-terminal FLAG-tagged seipin L91P (human) (UniProt Q96G97); experiment: co-IP; HEK293 cells co-transfected, lysed 48 h later in ODG lysis buffer (50 mM n-octyl-β-D-glucopyranoside, 50 mM Tris pH 6.8, 150 mM NaCl, 1 mM EDTA); anti-FLAG-agarose beads 2 h at 4 °C, eluted with 3xFLAG peptide; immunoblot for FLAG and Myc
[3] = molecular target: N-terminal FLAG-tagged seipin A212P (human) (UniProt Q96G97); experiment: as above
[4] = molecular target: Seipin-Myc, wild type (human) (UniProt Q96G97); experiment: atomic force microscopy; proteins co-isolated on anti-Myc beads from co-transfected tsA 201 cells, eluted and imaged in tapping mode in air; particle volumes and angles

ratio to parent [1]: 0.84 fold vs WT
B1: N-terminal FLAG-tagged wild-type seipin (WT), Q96G97 T78A (protein)
chain: MVNDPPVPALLWAQEVGQVLAGRARRLLLQFGVLFCTILLLLWVSVFLYGSFYYSYMPTVSHLSPVHFYYRTDCDSSATSLCSFPVANVSLTKGGRDRVLMYGQPYRVTLELELPESPVNQDLGMFLVTISCYTRGGRIISTSSRSVMLHYRSDLLQMLDTLVFSSLLLFGFAEQKQLLEVELYADYRENSYVPTTGAIIEIHSKRIQLYGAYLRIHAHFTGLRYLLYNFPMTCAFIGVASNFTFLSVIVLFSYMQWVWGGIWPRHRFSLQVNIRKRDNSRKEVQRRISAHQPGPEGQEESTPQSDVTEDGESPEDPSGTEGQLSEEEKPDQQPLSGEEELEPEASDGSGSWEDAALLTEANLPAPAPASASAPVLETLGSSEPAGGALRQRPTCSSS

reduction of the co-immunoprecipitation against wild-type seipin [2]: 50% | reduction of the co-immunoprecipitation against wild-type seipin [3]: 50%
B2: Myc-tagged human GPAT3 (GPAT3-Myc) (enzyme)
chain: MEGAELAGKILSTWLTLVLGFILLPSVFGVSLGISEIYMKILVKTLEWATIRIEKGTPKESILKNSASVGIIQRDESPMEKGLSGLRGRDFELSDVFYFSKKGLEAIVEDEVTQRFSSEELVSWNLLTRTNVNFQYISLRLTMVWVLGVIVRYCVLLPLRVTLAFIGISLLVIGTTLVGQLPDSSLKNWLSELVHLTCCRICVRALSGTIHYHNKQYRPQKGGICVANHTSPIDVLILTTDGCYAMVGQVHGGLMGIIQRAMVKACPHVWFERSEMKDRHLVTKRLKEHIADKKKLPILIFPEGTCINNTSVMMFKKGSFEIGGTIHPVAIKYNPQFGDAFWNSSKYNMVSYLLRMMTSWAIVCDVWYMPPMTREEGEDAVQFANRVKSAIAIQGGLTELPWDGGLKRAKVKDIFKEEQQKNYSKMIVGNGSLS

percent of seipin particles decorated by two GPAT3 particles [4]: 10.4%
B3: FLAG-GPAT3 (enzyme)
chain: MEGAELAGKILSTWLTLVLGFILLPSVFGVSLGISEIYMKILVKTLEWATIRIEKGTPKESILKNSASVGIIQRDESPMEKGLSGLRGRDFELSDVFYFSKKGLEAIVEDEVTQRFSSEELVSWNLLTRTNVNFQYISLRLTMVWVLGVIVRYCVLLPLRVTLAFIGISLLVIGTTLVGQLPDSSLKNWLSELVHLTCCRICVRALSGTIHYHNKQYRPQKGGICVANHTSPIDVLILTTDGCYAMVGQVHGGLMGIIQRAMVKACPHVWFERSEMKDRHLVTKRLKEHIADKKKLPILIFPEGTCINNTSVMMFKKGSFEIGGTIHPVAIKYNPQFGDAFWNSSKYNMVSYLLRMMTSWAIVCDVWYMPPMTREEGEDAVQFANRVKSAIAIQGGLTELPWDGGLKRAKVKDIFKEEQQKNYSKMIVGNGSLS

From paper PMC7039881
